Holding throughout (conditions): both partners purified
Test [1] has as its target T1, TRPM8 N-terminal cytosolic region (aa 1-639), GST-tagged (mouse, UniProt Q8R4D5 1-639).
T1 construct: transient receptor potential melastatin member 8, mouse, NP_599013, residues 1-639; also called TRPM8 N-terminus; source: E. coli BL21 (KRX), purified (GStrap FF or HaloLink Resin); not shown: GST, N-terminal, kept
Description: pull-down; TRP sequence (100 nM) covalently attached to NHS-activated Sepharose 4FF; prey 200 nM; 200 µL 50 mM Tris-HCl pH 7.5, 0.2% CHAPS, with 3 mM CaCl2; 30 min at RT, three washes; Western blot. Background: In western blotting, separated proteins are transferred to a membrane and probed.

In test [2] the target is T2, TRPA1 N-terminal cytosolic region (aa 1-721), GST-tagged (mouse, UniProt Q8BLA8 1-721).
T2 construct: transient receptor potential ankyrin member 1, mouse, NP_808449, residues 1-721; Vector carries GST/HaloTag and a TEV site; also called TRPA1 N-terminus; TRPA1 N-terminal domain; source: E. coli BL21 (KRX), purified (GStrap FF or HaloLink Resin); not shown: GST, N-terminal, kept
Description: pull-down; competition: immobilised TRP sequence with CaM or HINT1 and increasing concentrations of σ1R (up to 200 nM), 3 mM CaCl2; bound CaM or HINT1 by Western blot, relative to no σ1R.

The target in test [3] is T2, TRPA1 N-terminal cytosolic region (aa …). Description: pull-down; TRP sequence (100 nM) covalently attached to NHS-activated Sepharose 4FF; prey 200 nM; 200 µL 50 mM Tris-HCl pH 7.5, 0.2% CHAPS, with 3 mM CaCl2; 30 min at RT, three washes; Western blot.

B1: histidine triad nucleotide-binding protein 1 (HINT1), murine, GST-free (natural protein, mouse, UniProt P70349 1-126, looked up)
chain: MADEIAKAQVAQPGGDTIFGKIIRKEIPAKIIFEDDRCLAFHDISPQAPTHFLVIPKKHISQISVADDDDESLLGHLMIVGKKCAADLGLKRGYRMVVNEGADGGQSVYHIHLHVLGGRQMNWPPG
notes: source: E. coli BL21 (KRX), purified (GStrap FF or HaloLink Resin, cleaved with ProTEV protease, ion exchange); not shown: GST, N-terminal, cleaved
Take B1: the binding result in test [1] and in test [2] was “binds” throughout.

B2: sigma 1 receptor (σ1R), full-length murine, GST-free (natural protein, mouse, UniProt O55242 1-223, looked up)
chain: MPWAAGRRWAWITLILTIIAVLIQAAWLWLGTQNFVFSREEIAQLARQYAGLDHELAFSRLIVELRRLHPGHVLPDEELQWVFVNAGGWMGAMCILHASLSEYVLLFGTALGSHGHSGRYWAEISDTIISGTFHQWKEGTTKSEVFYPGETVVHGPGEATALEWGPNTWMVEYGRGVIPSTLFFALADTFFSTQDYLTLFYTLRAYARGLRLELTTYLFGQDS
notes: sigma 1 receptor, mouse, GenBank AF004927, coding region of the full-length protein; 223 amino acids; also called type 1 sigma receptor; source: E. coli BL21 (KRX), purified (GStrap FF or HaloLink Resin, cleaved with ProTEV protease, ion exchange); not shown: GST, N-terminal, cleaved
In the case of B2, the binding result in test [3] and in test [1] was “binds” in each case.

The values are drawn from paper PMC6582314, “Ligands Exert Biased Activity to Regulate Sigma 1 Receptor Interactions With Cationic TRPA1, TRPV1, and TRPM8 Channels” (Frontiers in Pharmacology, 2019).
